{
  "source": "ChEMBL document CHEMBL1135259",
  "about": "“Azapeptides as inhibitors of the hepatitis C virus NS3 serine protease” (Bioorg Med Chem Lett, 2002)",
  "proteins": {"B1": {"name": "NS3 (Hepatitis C virus), A3EZJ3 (protein)", "chain": "APITAYAQQTRGLLGCIITGLTGRDKNQVEGEVQIVSTAAQTFLATCINGVCWTVYHGAGTRTIASSKGPVIQMYTNVDQDLVGWPAPQGARSLTPCTCGSSDLYLVTRHADVIPVRRRGDGRGSLLSPRPISYLKGSSGGPLLCPAGHAVGIFRAAVCTRGVAKAVDFIPVEGLETTMRSPVFSDNSSPPAVPQSYQVAHLHAPTGSGKSTKVPAAYAAQGYKVLVLNPSVAATLGFGAYMSKAHGIDPNIRTGVRTITTGSPITYSTYGKFLADGGCSGSAYDIIICDECHSTDATSILGIGTVLDQAETAGARLTVLATATPPGSVTVPHPNIEEVALSTTGEIPFYGKAIPLEAIKGGRHLIFCHSKKKCDELAAKLVALGVNAVAYYRGLDVSVIPASGDVVVVATDALMTGFTGDFDSVIDCNTCVTQTVDFSLDPTFTIETTTLPQDAVSRTQRRGRTGRGKPGIYRFVTPGERPSGMFDSSVLCECYDAGCAWYELTPAETTVRLRAYMNTPGLPVCQDHLEFWEGVFTGLTHIDAHFLSQTKQSGENLPYLVAYQATVCARAQAPPPSWDQMWKCLIRLKPTLHGPTPLLYRLGAVQNEITLTHPITKYIMTCMSADLEVVT"}},
  "settings_in_all_cases": "Hepacivirus hominis",
  "key": {"[1]": {"substrate": "CCCN(NC(=O)[C@H]1CCCN1C(=O)[C@@H](NC(=O)[C@@H](NC(=O)[C@H](CC(=O)O)NC(C)=O)C(C)C)C(C)C)C(=O)Oc1ccc([N+](=O)[O-])cc1", "test": "(§1) Michaelis-Menten constant was determined against Hepatitis C virus NS3 protease and represented as Km"}, "[2]": {"substrate": "CCCN(NC(=O)[C@H]1CCCN1C(=O)[C@@H](NC(=O)[C@@H](NC(=O)[C@H](CC(=O)O)NC(=O)[C@H](CCC(=O)O)NC(C)=O)C(C)C)C(C)C)C(=O)Oc1ccc([N+](=O)[O-])cc1", "test": "as §1"}, "[3]": {"substrate": "CCCN(NC(=O)[C@H]1CCCN1C(=O)[C@@H](NC(=O)[C@@H](NC(C)=O)C(C)C)C(C)C)C(=O)Oc1ccc([N+](=O)[O-])cc1", "test": "as §1"}, "[4]": {"substrate": "CCCC(NC(=O)[C@H]1CCCN1C(=O)[C@@H](NC(=O)[C@@H](NC(=O)[C@H](CC(=O)O)NC(=O)[C@H](CCC(=O)O)NC(=O)[C@@H](NC(=O)[C@H](CC(=O)O)NC(C)=O)[C@@H](C)O)C(C)C)C(C)C)C(=O)Oc1ccc([N+](=O)[O-])cc1", "test": "as §1"}, "[5]": {"substrate": "CCCN(NC(=O)[C@H]1CCCN1C(=O)[C@@H](NC(=O)[C@@H](NC(=O)[C@H](CC(=O)O)NC(=O)[C@H](CCC(=O)O)NC(=O)[C@@H](NC(C)=O)[C@@H](C)O)C(C)C)C(C)C)C(=O)Oc1ccc([N+](=O)[O-])cc1", "test": "Binding affinity against Hepatitis C virus NS3 protease"}, "[6]": {"substrate": "CCCN(NC(=O)[C@H]1CCCN1C(=O)[C@@H](NC(=O)[C@@H](NC(=O)[C@H](CC(=O)O)NC(=O)[C@H](CCC(=O)O)NC(=O)[C@@H](NC(=O)[C@H](CC(=O)O)NC(C)=O)[C@@H](C)O)C(C)C)C(C)C)C(=O)Oc1ccc([N+](=O)[O-])cc1", "test": "Michaelis-Menten constant against Hepatitis C virus NS3 protease and represented as Km"}},
  "data": [
    {"protein": "B1", "values": [
      {"measurement": "Km", "setting": "[1]", "result": 9, "unit": "µM"},
      {"measurement": "Km", "setting": "[2]", "result": 4, "unit": "µM"},
      {"measurement": "Km", "setting": "[3]", "result": 100, "unit": "µM"},
      {"measurement": "Km", "setting": "[4]", "result": 4, "unit": "µM"},
      {"measurement": "Km", "setting": "[5]", "result": 5, "unit": "µM"},
      {"measurement": "Km", "setting": "[6]", "result": 5, "unit": "µM"}
    ]}
  ]
}
